Data taken from patent publication US20230062308A1, “TREATMENT OF CK8 POSITIVE CANCERS IN RELATION WITH K-RAS GENE STATUS” (INTERNATIONAL - DRUG - DEVELOPMENT - BIOTECH, priority 2017, published 2023).

Tests used:
CK8 = target: T1, CK8 (Homo sapiens, UniProt P05787); experiment: Immunohistochemistry staining on Colorectal PDX xenograft models; format: binding; design: from tissue; host or cells: pancreatic cancer PDX tumour tissue (PAN-001, PAN-003, PAN-004, PAN-035); key: 2+ for strong; 1+ for moderate intensity IHC staining
T1 sequence (P05787 1-483): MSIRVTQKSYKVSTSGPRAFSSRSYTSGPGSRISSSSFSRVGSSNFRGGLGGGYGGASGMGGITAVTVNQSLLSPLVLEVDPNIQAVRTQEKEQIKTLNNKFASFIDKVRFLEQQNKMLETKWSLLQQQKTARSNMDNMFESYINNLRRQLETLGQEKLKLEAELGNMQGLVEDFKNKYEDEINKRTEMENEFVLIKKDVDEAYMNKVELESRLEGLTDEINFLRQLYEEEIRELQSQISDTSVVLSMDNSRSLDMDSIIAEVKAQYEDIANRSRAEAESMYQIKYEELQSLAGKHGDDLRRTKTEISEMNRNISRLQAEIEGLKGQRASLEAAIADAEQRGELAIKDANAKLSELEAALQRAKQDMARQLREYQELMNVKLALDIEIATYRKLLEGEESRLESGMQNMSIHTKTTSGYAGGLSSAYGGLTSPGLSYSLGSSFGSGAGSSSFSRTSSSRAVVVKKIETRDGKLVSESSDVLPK
Experimental: This example describes methods to investigate on CK8 cellular expression at the cell surface by Immunohistochemistry. The antigen retrieval (AR) was performed following incubation at 95° C. during 30 min in Sodium Citrate (pH6.0). The MAb anti CK8 was incubated 1 hour at room temperature (RT). The secondary antibody as a goat anti human was incubated at RT during 1 hour then with a rabbit polyclonal anti FITC at RT during 30 min.
All of CRC PDX models expressed the HzR022 (D-A10) epitope detected by IHC. Different IHC scores were observed as 2+ for strong or 1+ for moderate intensity IHC staining.

[1] = tested on: Human HAN larynx cell line BICR18; experiment: In vivo tumour growth, HAN CDX model (larynx cell line BICR18); details: BICR18 s.c. in SCID mice; HzR022 (D-A10) 10 mg/kg i.p. BIW × 3; cisplatin 2.5 mg/kg i.p. QW × 3
Experimental: Human HAN larynx cell line BICR18 was subcutaneously injected in SCID mice, with a concentration of 1.10^6 cells per injection (200 μL). Mice were randomized when the tumours reached a mean volume of about 100 mm^3 for the 9 groups (total 45 mice). […] The endpoint was defined by animal ethics as a tumour diameter of >18 mm, significant weight loss or alteration of animal well-being. In order to assess the effectiveness of the compounds on tumourigenesis, tumour volume was measured two times a week. The size of the primary tumours were measured using calipers and the tumour volume (TV) was extrapolated to a sphere using the formula TV= 4/3π×r^3, by calculating the mean radius from the two measurements. The median and standard deviation were also calculated for each group. Median is preferred to mean in order to exclude the extreme values. MAb treatment was administered by intraperitoneal injection twice a week during three weeks at 10 or 1 mg/kg doses. The cisplatin (Myland) treatment was administered by intraperitoneal injection once per week during three weeks at 1, 2.5 or 5 mg/kg doses. The product was prepared in accordance with the sponsor's guidelines, i.e. diluted in PBS. Mice were sacrificed when the tumours reached a maximum volume of 1600 mm^3. […] The t-test (two-tailed test) was performed on the tumour volume values (mm^3) measured on the day of sacrifice.

HzR022 (D-A10) IHC score (CK8; CRC PDX model CR0004): 2+
HzR022 (D-A10) IHC score (CK8; CRC PDX model CR0012): 2+
HzR022 (D-A10) IHC score (CK8; CRC PDX model CR0029): 2+
HzR022 (D-A10) IHC score (CK8; CRC PDX model CR0126): 2+
HzR022 (D-A10) IHC score (CK8; CRC PDX model CR0196): 2+
HzR022 (D-A10) IHC score (CK8; CRC PDX model CR0205): 1+
HzR022 (D-A10) IHC score (CK8; CRC PDX model CR0455): 1+
HzR022 (D-A10) IHC score (CK8; CRC PDX model CR1530): 2+
HzR022 (D-A10) IHC score (CK8; CRC PDX model CR3056): 1+
HzR022 (D-A10) IHC score (CK8; CRC PDX model CR3150): 1+
HzR022 (D-A10) IHC score (CK8; CRC PDX model CR6254): 2+
B1: HzR022 (D-A10): humanized anti-CK8 monoclonal antibody D-A10; VL SEQ ID NO: 14, VH SEQ ID NO: 15 (antibody, V domains shown)
VH: EVQLVESGGGLVQPGGSLRLSCAASGFTFSSYWMSWVRQAPGKGLVWVSDINSDGSSTKYADSVKGRFTISRDNAKNTLYLQMNSLRAEDTAVYYCIAHYSGGGFAYWGQGTLVTVSS
VL: DIVMTQAPLSLPVTPGEPASISCRSSKSLLYSNGYNYLYWFLQKPGQSPQLLIYYMSNLASGVPDRFSGSGSGTDFTLKISRVEAEDVGVYYCMQSLEYPFTFGQGTKLEIK
modifications: VHHzD-A10; VLHzD-A10
tumour growth control (tumour volume, FIG. 3) [1]: did trigger tumour growth control
